The numbers were not newly measured in paper PMC6399403, which cites them from elsewhere.

pKd: −log10 of the molar value. Where two headings read alike, the source gives them in different places.

For data set [1], the target named is CD155 (Homo sapiens) (UniProt P15151).
Data set [2] has the same target. This is another data set of the same source.

UniProt P15151, sequence (P15151 21-343): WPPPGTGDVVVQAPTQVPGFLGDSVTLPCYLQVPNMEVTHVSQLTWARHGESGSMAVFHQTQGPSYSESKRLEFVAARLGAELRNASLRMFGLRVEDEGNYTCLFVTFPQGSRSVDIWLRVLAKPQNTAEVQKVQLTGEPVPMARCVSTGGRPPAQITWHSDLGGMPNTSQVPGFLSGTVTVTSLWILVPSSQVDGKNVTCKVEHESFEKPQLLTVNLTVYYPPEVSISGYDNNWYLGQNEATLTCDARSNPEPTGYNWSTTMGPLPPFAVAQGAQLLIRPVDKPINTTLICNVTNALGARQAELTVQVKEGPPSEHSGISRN

For orientation: pKd means the Kd on a negative log10 scale, so that one unit is a factor of ten. Take CD226 (from UniProt Q15762): in the data set with CD155 (Homo sapiens) [1], the pKd was 7.00.

Take TIGIT (from UniProt Q495A1): the pKd in the data set with CD155 (Homo sapiens) [2] is 9.00.
